From US20140221281A1 (Sanofi, published 2014)
Where two headings read alike, the source gives them in different places. *1 amine or outer side, *2 acyl side, *3 side chain or, on linkers, in order; H or OH if unused. Where no end group is shown, it is not given here. Side-chain parts run from the residue outwards. [ ]: non-standard residue; d: D form. The star is where a group is joined. γGlu = O=C(O)[C@H](CCC(=O)[*:2])N[*:1]; Stearoyl = CCCCCCCCCCCCCCCCCC(=O)*; Palmitoyl = CCCCCCCCCCCCCCCC(=O)*; αMeOrn = C[C@](N)(CCCN)C(=O)O; αMeK = C[C@](N)(CCCCN)C(=O)O; Aib = CC(C)(N)C(=O)O

B1: SEQ ID NO: 17 (peptide)
peptide: Y[Aib]EGTFTSDLSIQLEERAA[αMeK]EFIEWLKNTGPSSGAPPPS-NH2
modifications: N-terminus assumed
SMILES: CC[C@H](C)[C@H](NC(=O)[C@H](CO)NC(=O)[C@H](CC(C)C)NC(=O)[C@H](CC(=O)O)NC(=O)[C@H](CO)NC(=O)[C@@H](NC(=O)[C@H](Cc1ccccc1)NC(=O)[C@@H](NC(=O)CNC(=O)[C@H](CCC(=O)O)NC(=O)C(C)(C)NC(=O)[C@@H](N)Cc1ccc(O)cc1)[C@@H](C)O)[C@@H](C)O)C(=O)N[C@@H](CCC(N)=O)C(=O)N[C@@H](CC(C)C)C(=O)N[C@@H](CCC(=O)O)C(=O)N[C@@H](CCC(=O)O)C(=O)N[C@@H](CCCNC(=N)N)C(=O)N[C@@H](C)C(=O)N[C@@H](C)C(=O)N[C@@](C)(CCCCN)C(=O)N[C@@H](CCC(=O)O)C(=O)N[C@@H](Cc1ccccc1)C(=O)N[C@H](C(=O)N[C@@H](CCC(=O)O)C(=O)N[C@@H](Cc1c[nH]c2ccccc12)C(=O)N[C@@H](CC(C)C)C(=O)N[C@@H](CCCCN)C(=O)N[C@@H](CC(N)=O)C(=O)N[C@H](C(=O)NCC(=O)N1CCC[C@H]1C(=O)N[C@@H](CO)C(=O)N[C@@H](CO)C(=O)NCC(=O)N[C@@H](C)C(=O)N1CCC[C@H]1C(=O)N1CCC[C@H]1C(=O)N1CCC[C@H]1C(=O)N[C@@H](CO)C(N)=O)[C@@H](C)O)[C@@H](C)CC
B2: SEQ ID NO: 15 (peptide)
peptide: Y[Aib]QGTFTSDLSIQK([γGlu-Stearoyl])DEQRA[αMeOrn]EFIEWLKAGGPSSGAPPPS-NH2
modifications: N-terminus assumed
SMILES: CCCCCCCCCCCCCCCCCC(=O)N[C@@H](CCC(=O)NCCCC[C@H](NC(=O)[C@H](CCC(N)=O)NC(=O)[C@@H](NC(=O)[C@H](CO)NC(=O)[C@H](CC(C)C)NC(=O)[C@H](CC(=O)O)NC(=O)[C@H](CO)NC(=O)[C@@H](NC(=O)[C@H](Cc1ccccc1)NC(=O)[C@@H](NC(=O)CNC(=O)[C@H](CCC(N)=O)NC(=O)C(C)(C)NC(=O)[C@@H](N)Cc1ccc(O)cc1)[C@@H](C)O)[C@@H](C)O)[C@@H](C)CC)C(=O)N[C@@H](CC(=O)O)C(=O)N[C@@H](CCC(=O)O)C(=O)N[C@@H](CCC(N)=O)C(=O)N[C@@H](CCCNC(=N)N)C(=O)N[C@@H](C)C(=O)N[C@@](C)(CCCN)C(=O)N[C@@H](CCC(=O)O)C(=O)N[C@@H](Cc1ccccc1)C(=O)N[C@H](C(=O)N[C@@H](CCC(=O)O)C(=O)N[C@@H](Cc1c[nH]c2ccccc12)C(=O)N[C@@H](CC(C)C)C(=O)N[C@@H](CCCCN)C(=O)N[C@@H](C)C(=O)NCC(=O)NCC(=O)N1CCC[C@H]1C(=O)N[C@@H](CO)C(=O)N[C@@H](CO)C(=O)NCC(=O)N[C@@H](C)C(=O)N1CCC[C@H]1C(=O)N1CCC[C@H]1C(=O)N1CCC[C@H]1C(=O)N[C@@H](CO)C(N)=O)[C@@H](C)CC)C(=O)O
B3: SEQ ID NO: 11 (peptide)
peptide: Y[Aib]EGTFTSDLSIQK([γGlu-Palmitoyl])EERAA[αMeK]EFIEWLKNTGPSSGAPPPS-NH2
modifications: N-terminus assumed
SMILES: CCCCCCCCCCCCCCCC(=O)N[C@@H](CCC(=O)NCCCC[C@H](NC(=O)[C@H](CCC(N)=O)NC(=O)[C@@H](NC(=O)[C@H](CO)NC(=O)[C@H](CC(C)C)NC(=O)[C@H](CC(=O)O)NC(=O)[C@H](CO)NC(=O)[C@@H](NC(=O)[C@H](Cc1ccccc1)NC(=O)[C@@H](NC(=O)CNC(=O)[C@H](CCC(=O)O)NC(=O)C(C)(C)NC(=O)[C@@H](N)Cc1ccc(O)cc1)[C@@H](C)O)[C@@H](C)O)[C@@H](C)CC)C(=O)N[C@@H](CCC(=O)O)C(=O)N[C@@H](CCC(=O)O)C(=O)N[C@@H](CCCNC(=N)N)C(=O)N[C@@H](C)C(=O)N[C@@H](C)C(=O)N[C@@](C)(CCCCN)C(=O)N[C@@H](CCC(=O)O)C(=O)N[C@@H](Cc1ccccc1)C(=O)N[C@H](C(=O)N[C@@H](CCC(=O)O)C(=O)N[C@@H](Cc1c[nH]c2ccccc12)C(=O)N[C@@H](CC(C)C)C(=O)N[C@@H](CCCCN)C(=O)N[C@@H](CC(N)=O)C(=O)N[C@H](C(=O)NCC(=O)N1CCC[C@H]1C(=O)N[C@@H](CO)C(=O)N[C@@H](CO)C(=O)NCC(=O)N[C@@H](C)C(=O)N1CCC[C@H]1C(=O)N1CCC[C@H]1C(=O)N1CCC[C@H]1C(=O)N[C@@H](CO)C(N)=O)[C@@H](C)O)[C@@H](C)CC)C(=O)O
B4: SEQ ID NO: 16 (peptide)
peptide: Y[Aib]EGTFTSDLSIQK([γGlu-Palmitoyl])EERAA[αMeK]EFIEWLKAGGPSSGAPPPS-NH2
modifications: N-terminus assumed
SMILES: CCCCCCCCCCCCCCCC(=O)N[C@@H](CCC(=O)NCCCC[C@H](NC(=O)[C@H](CCC(N)=O)NC(=O)[C@@H](NC(=O)[C@H](CO)NC(=O)[C@H](CC(C)C)NC(=O)[C@H](CC(=O)O)NC(=O)[C@H](CO)NC(=O)[C@@H](NC(=O)[C@H](Cc1ccccc1)NC(=O)[C@@H](NC(=O)CNC(=O)[C@H](CCC(=O)O)NC(=O)C(C)(C)NC(=O)[C@@H](N)Cc1ccc(O)cc1)[C@@H](C)O)[C@@H](C)O)[C@@H](C)CC)C(=O)N[C@@H](CCC(=O)O)C(=O)N[C@@H](CCC(=O)O)C(=O)N[C@@H](CCCNC(=N)N)C(=O)N[C@@H](C)C(=O)N[C@@H](C)C(=O)N[C@@](C)(CCCCN)C(=O)N[C@@H](CCC(=O)O)C(=O)N[C@@H](Cc1ccccc1)C(=O)N[C@H](C(=O)N[C@@H](CCC(=O)O)C(=O)N[C@@H](Cc1c[nH]c2ccccc12)C(=O)N[C@@H](CC(C)C)C(=O)N[C@@H](CCCCN)C(=O)N[C@@H](C)C(=O)NCC(=O)NCC(=O)N1CCC[C@H]1C(=O)N[C@@H](CO)C(=O)N[C@@H](CO)C(=O)NCC(=O)N[C@@H](C)C(=O)N1CCC[C@H]1C(=O)N1CCC[C@H]1C(=O)N1CCC[C@H]1C(=O)N[C@@H](CO)C(N)=O)[C@@H](C)CC)C(=O)O

How the values were obtained:
Experiment in all cases: cell-based or functional assay
human GLP-1 receptor [1] = molecular target: T1, human GLP-1 receptor (human, UniProt P43220 24-463)
human GIP receptor [2] = molecular target: T2, human GIP receptor (human, UniProt P48546 22-466)
T2 sequence (looked up): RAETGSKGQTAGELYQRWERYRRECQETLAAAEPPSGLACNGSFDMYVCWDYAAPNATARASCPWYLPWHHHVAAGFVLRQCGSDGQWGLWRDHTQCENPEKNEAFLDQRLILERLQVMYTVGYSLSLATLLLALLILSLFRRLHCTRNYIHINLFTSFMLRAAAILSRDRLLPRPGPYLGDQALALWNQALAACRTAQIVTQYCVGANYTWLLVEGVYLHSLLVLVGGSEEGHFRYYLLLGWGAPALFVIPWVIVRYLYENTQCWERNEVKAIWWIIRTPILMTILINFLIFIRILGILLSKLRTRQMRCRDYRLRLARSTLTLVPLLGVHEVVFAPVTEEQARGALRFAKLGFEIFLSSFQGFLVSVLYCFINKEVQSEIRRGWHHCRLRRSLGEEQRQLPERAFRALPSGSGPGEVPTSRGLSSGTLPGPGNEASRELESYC

human GLP-1 receptor [3] = molecular target: T1, human GLP-1 receptor; remark: listed apart in the source
Target sequence in this assay (P43220 24-463): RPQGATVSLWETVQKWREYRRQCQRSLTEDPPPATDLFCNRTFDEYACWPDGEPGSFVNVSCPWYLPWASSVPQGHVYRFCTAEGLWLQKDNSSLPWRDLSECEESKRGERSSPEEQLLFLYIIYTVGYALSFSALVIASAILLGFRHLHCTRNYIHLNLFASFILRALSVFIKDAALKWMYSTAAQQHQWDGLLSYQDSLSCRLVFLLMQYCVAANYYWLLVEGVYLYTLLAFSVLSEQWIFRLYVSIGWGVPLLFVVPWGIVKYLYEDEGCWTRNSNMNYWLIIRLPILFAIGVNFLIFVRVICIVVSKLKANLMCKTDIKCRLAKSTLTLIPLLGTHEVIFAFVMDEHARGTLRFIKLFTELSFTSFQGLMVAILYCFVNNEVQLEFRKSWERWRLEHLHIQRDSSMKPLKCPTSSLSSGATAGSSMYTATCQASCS

human GIP receptor [4] = molecular target: T2, human GIP receptor; remark: listed apart in the source
human GLP-1 receptor [5] = molecular target: T1, human GLP-1 receptor; remark: listed apart in the source
human GIP receptor [6] = molecular target: T2, human GIP receptor; remark: listed apart in the source
human glucagon receptor = human glucagon receptor (human, UniProt P47871 26-477)
Sequence of human glucagon receptor (P47871 26-477): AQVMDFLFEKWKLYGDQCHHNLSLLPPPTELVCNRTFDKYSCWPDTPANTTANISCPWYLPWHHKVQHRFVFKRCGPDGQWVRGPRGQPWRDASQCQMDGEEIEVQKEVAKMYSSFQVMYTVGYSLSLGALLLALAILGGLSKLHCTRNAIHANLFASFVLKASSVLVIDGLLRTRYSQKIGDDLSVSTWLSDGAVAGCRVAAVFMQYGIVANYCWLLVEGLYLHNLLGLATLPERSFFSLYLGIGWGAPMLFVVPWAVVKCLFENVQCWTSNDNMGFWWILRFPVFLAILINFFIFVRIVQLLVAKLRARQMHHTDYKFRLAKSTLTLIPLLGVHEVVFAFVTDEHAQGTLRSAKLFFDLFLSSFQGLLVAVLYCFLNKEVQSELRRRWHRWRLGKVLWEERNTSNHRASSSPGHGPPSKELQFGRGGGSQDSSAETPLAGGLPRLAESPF

| Binder | EC50 hGLP-1 R [pM] (cAMP formation) (human GLP-1 receptor [1]) | EC50 hGIPR [pM] (cAMP formation) (human GIP receptor [2]) | EC50 hGLP-1 R [pM] (cAMP formation) (human GLP-1 receptor [3]) | EC50 hGIP R [pM] (cAMP formation) (human GIP receptor [4]) | EC50 hGLP-1 R [pM] (cAMP formation) (human GLP-1 receptor [5]) | EC50 hGIP R [pM] (cAMP formation) (human GIP receptor [6]) | EC50 hGLUC R [pM] (cAMP formation) (human glucagon receptor) |
| --- | --- | --- | --- | --- | --- | --- | --- |
| B1 | 5.9 | 163 | – | – | – | – | – |
| YAEGTFTSDVSIYLEGQAAKEFIAWLVKGR-NH2 [Tyr(1)Ile(12)-GLP1] | – | – | 5 | 3660 | – | – | – |
| B2 | – | – | – | – | 16.1 | 8.9 | 4 |
| B3 | 5.1 | 7 | – | – | 5.1 | 7 | 3160 |
| B4 | – | – | – | – | 4.1 | 2.5 | 19800 |
